Measurements taken from article PMC6616044, “Identification and characterization of a new sulfoacetaldehyde reductase from the human gut bacterium Bifidobacterium kashiwanohense” (Bioscience Reports, 2019).

Experiments:
BkTauF = target: T1, BkTauF (Bifidobacterium catenulatum, UniProt A0A0A7I0A5); experiment: X-ray crystal structure, […] Å; format: binding; settings: binary complex; nucleotide site in cleft between N- and C-terminal domains
T1 construct: gene AH68_00250; codon-optimized gene; His6-MBP-TEV-GGG fusion in E. coli BL21(DE3), tag cut by TEV protease, GGG linker before N-terminus; 375 residues seen, 41 kDa monomer, dimer; Zn2+ enzyme

[1] = target: Bifidobacterium kashiwanohense TauF (sulfoacetaldehyde reductase) (Bifidobacterium kashiwanohense); experiment: SEC; Superdex200 gel filtration, 5 mg/ml BkTauF, 4 ml injected, buffer C (20 mM Tris pH 7.5, 200 mM KCl, 1 mM DTT), 2 ml/min; molecular weight from the elution volume against markers
[2] = substrate: NC(=O)c1ccc[n+]([C@@H]2O[C@H](COP(=O)(O)OP(=O)(O)OC[C@H]3O[C@@H](n4cnc5c(N)ncnc54)[C@H](OP(=O)(O)O)[C@@H]3O)[C@@H](O)[C@H]2O)c1; experiment: spectrophotometric NADPH formation, A340; format: biochemical, Bifidobacterium catenulatum; settings: isethionate oxidation, 100 mM isethionate, 50 mM CAPSO pH 10.0, room temperature
Description: spectrophotometric NADPH formation, A340 on BkTauF

[3] = substrate: NC(=O)C1=CN([C@@H]2O[C@H](COP(=O)(O)OP(=O)(O)OC[C@H]3O[C@@H](n4cnc5c(N)ncnc54)[C@H](OP(=O)(O)O)[C@@H]3O)[C@@H](O)[C@H]2O)C=CC1; experiment: spectrophotometric NADPH assay, A340; format: biochemical, Bifidobacterium catenulatum; settings: sulfoacetaldehyde reduction, 5 mM sulfoacetaldehyde, 50 mM Tris/HCl pH 7.5, room temperature
Description: spectrophotometric NADPH assay, A340 on BkTauF

[4] = substrate: NC(=O)C1=CN([C@@H]2O[C@H](COP(=O)(O)OP(=O)(O)OC[C@H]3O[C@@H](n4cnc5c(N)ncnc54)[C@H](O)[C@@H]3O)[C@@H](O)[C@H]2O)C=CC1; experiment: spectrophotometric NADH assay, A340; format: biochemical, Bifidobacterium catenulatum; settings: sulfoacetaldehyde reduction; 5 mM sulfoacetaldehyde, 50 mM Tris/HCl pH 7.5, room temperature; pH 7.5
Description: (§1) spectrophotometric NADH assay, A340 on BkTauF

[5] = substrate: O=CCS(=O)(=O)O; experiment: spectrophotometric NADH assay, A340; format: biochemical, Bifidobacterium catenulatum; settings: sulfoacetaldehyde introduced as bisulfite adduct; 0.5 mM NADH, 50 mM Tris/HCl pH 7.5, room temperature; pH 7.5
Description: as §1

[6] = substrate: O=S(=O)(O)CCO; experiment: spectrophotometric NADH assay, A340; format: biochemical, Bifidobacterium catenulatum; settings: isethionate oxidation; 1 mM NAD+, 50 mM CAPSO pH 10.0, room temperature; pH 10.0
Description: as §1

[7] = substrate: NC(=O)c1ccc[n+]([C@@H]2O[C@H](COP(=O)(O)OP(=O)(O)OC[C@H]3O[C@@H](n4cnc5c(N)ncnc54)[C@H](O)[C@@H]3O)[C@@H](O)[C@H]2O)c1; experiment: spectrophotometric NADH formation, A340; format: biochemical, Bifidobacterium catenulatum; settings: isethionate oxidation, 100 mM isethionate, 50 mM CAPSO pH 10.0, room temperature
Description: spectrophotometric NADH formation, A340 on BkTauF

Molecule: NC(=O)c1ccc[n+]([C@@H]2O[C@H](COP(=O)(O)OP(=O)(O)OC[C@H]3O[C@@H](n4cnc5c(N)ncnc54)[C@H](O)[C@@H]3O)[C@@H](O)[C@H]2O)c1 [NAD^+]
- X-ray crystal structure, 3.0 Å (BkTauF): The electron density is well defined for NAD^+

Molecule: Bifidobacterium kashiwanohense TauF (sulfoacetaldehyde reductase) (enzyme)
- stoichiometry N [1]: 2

B1: BkTauF (Bifidobacterium catenulatum subsp. puerorum PV20-2) (protein)
chain: MLWDYAQPVTIRFGKGRAMEIKDIAEAMGLHDGIMVTPKFFVDSGEAQRLIDASDGAVSTVFTDFSPNPDVTEVDACAEIIRKNHCEFVVAMGGGSAMDVSKAAASICLTDDSIADYHGTGKAMPQKHLPIIALPTTAGTGSEVTCVSVLTNRKLGKKAPIVSDGFFPSVAIVDPELTYSVPPKITASTGMDVLSQAIEGFWSKGHQPICDSCAAHAAKLVFKYLPIAVAEPHNEEAREKMCEASVIAGLAFTLPKTTSSHACSFPLTNIHGIPHGEACGLTLDYFARINKDAQHGRVQEFARGIGFKDVDAMADAIHDLKVRIGMRTGLKDLNLTEEQIADLVRISRHPNLYNNPVEITDDMLDTMYHYLASTD
notes: codon-optimized gene; His6-MBP-TEV-GGG fusion in E. coli BL21(DE3), tag cut by TEV protease, GGG linker before N-terminus; 375 residues seen, 41 kDa monomer, dimer; Zn2+ enzyme
- Km [2]: 770 ± 80 µM
- kcat [2]: 0.8 ± 0.02 s⁻¹
- kcat/Km [2]: 1030 M⁻¹ s⁻¹
- Km [3]: 730 ± 80 µM
- kcat [3]: 19 ± 1.13 s⁻¹
- kcat/Km [3]: 26200 M⁻¹ s⁻¹
- Km [4]: 60 ± 10 µM
- kcat [4]: 18.7 ± 0.52 s⁻¹
- kcat/Km [4]: 301000 M⁻¹ s⁻¹
- Km [5]: 500 ± 40 µM
- kcat [5]: 22.8 ± 0.68 s⁻¹
- kcat/Km [5]: 46100 M⁻¹ s⁻¹
- Km [6]: 4440 ± 590 µM
- kcat [6]: 0.97 ± 0.03 s⁻¹
- kcat/Km [6]: 218 M⁻¹ s⁻¹
- Km [7]: 80 ± 0 µM
- kcat [7]: 1.3 ± 0.02 s⁻¹
- kcat/Km [7]: 15800 M⁻¹ s⁻¹
